The text below walks through data of publication PMC6547726, “Advanced FRET normalization allows quantitative analysis of protein interactions including stoichiometries and relative affinities in living cells” (Scientific Reports, 2019).

The target in one test is YFP-p65 (UniProt Q04206). Description: FRET or BRET; 3-filter FRET by flow cytometry (CYTOFLEX S) of living transfected HeLa cells, five plasmid ratios; DFRET of single cells fitted to a law-of-mass-action model (Ka^app apparent, z, FRETmax).
Sequence of YFP-p65 (Q04206 whole entry): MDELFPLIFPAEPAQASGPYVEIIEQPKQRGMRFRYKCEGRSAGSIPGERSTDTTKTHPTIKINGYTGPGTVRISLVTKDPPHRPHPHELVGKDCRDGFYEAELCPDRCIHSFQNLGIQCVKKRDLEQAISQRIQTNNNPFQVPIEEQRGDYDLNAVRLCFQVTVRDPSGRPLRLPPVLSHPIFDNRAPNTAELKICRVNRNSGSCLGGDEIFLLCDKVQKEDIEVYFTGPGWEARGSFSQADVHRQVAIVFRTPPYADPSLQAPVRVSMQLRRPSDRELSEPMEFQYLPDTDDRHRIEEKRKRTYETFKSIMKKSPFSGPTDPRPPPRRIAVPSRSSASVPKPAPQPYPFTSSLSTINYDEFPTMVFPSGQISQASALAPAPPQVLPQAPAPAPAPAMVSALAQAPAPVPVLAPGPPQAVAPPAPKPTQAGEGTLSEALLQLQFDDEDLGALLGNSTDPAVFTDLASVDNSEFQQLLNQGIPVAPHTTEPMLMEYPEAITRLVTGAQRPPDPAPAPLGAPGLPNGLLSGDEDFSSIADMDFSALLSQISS
Another test addresses T1, YFP-tagged IKKα (UniProt O15111 1-745).
T1 construct: IKKα, IKK subunit α of the NF-kappaB pathway; FRET donor; also called IKK subunit α; source: HeLa cells (clone ACC 57), transfected, in living cells
T1 sequence (looked up): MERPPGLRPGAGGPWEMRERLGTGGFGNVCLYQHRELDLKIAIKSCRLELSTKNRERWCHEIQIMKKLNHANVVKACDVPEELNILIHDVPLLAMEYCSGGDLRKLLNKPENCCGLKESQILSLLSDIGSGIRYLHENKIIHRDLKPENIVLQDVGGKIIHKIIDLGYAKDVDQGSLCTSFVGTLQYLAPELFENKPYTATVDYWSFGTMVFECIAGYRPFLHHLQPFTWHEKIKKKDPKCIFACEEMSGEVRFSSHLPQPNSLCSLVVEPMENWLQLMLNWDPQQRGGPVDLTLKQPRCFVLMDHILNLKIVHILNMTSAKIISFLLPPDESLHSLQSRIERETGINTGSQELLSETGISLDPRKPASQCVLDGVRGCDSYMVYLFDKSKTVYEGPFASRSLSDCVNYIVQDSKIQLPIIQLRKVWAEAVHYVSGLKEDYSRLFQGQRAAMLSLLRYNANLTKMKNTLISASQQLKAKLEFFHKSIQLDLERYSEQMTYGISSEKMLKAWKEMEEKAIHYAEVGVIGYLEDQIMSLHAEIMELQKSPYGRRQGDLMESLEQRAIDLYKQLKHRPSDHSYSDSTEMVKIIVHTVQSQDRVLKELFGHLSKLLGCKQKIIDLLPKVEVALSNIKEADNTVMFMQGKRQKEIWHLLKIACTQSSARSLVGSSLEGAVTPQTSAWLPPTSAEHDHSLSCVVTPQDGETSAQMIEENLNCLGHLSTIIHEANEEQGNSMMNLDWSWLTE
The description is as above. Particulars: partners not purified.

By stoichiometry N is commonly meant the number of molecules, sites or subunits per partner or assembly.

With “IκB-mCherry (from UniProt P25963 1-317) (natural protein)”, the stoichiometry N (acceptor (IκB) per donor (p65)) in the test with YFP-p65 was determined as 0.5.

B1: mCherry-tagged IKKβ (natural protein, UniProt O14920 1-756, looked up)
chain: MSWSPSLTTQTCGAWEMKERLGTGGFGNVIRWHNQETGEQIAIKQCRQELSPRNRERWCLEIQIMRRLTHPNVVAARDVPEGMQNLAPNDLPLLAMEYCQGGDLRKYLNQFENCCGLREGAILTLLSDIASALRYLHENRIIHRDLKPENIVLQQGEQRLIHKIIDLGYAKELDQGSLCTSFVGTLQYLAPELLEQQKYTVTVDYWSFGTLAFECITGFRPFLPNWQPVQWHSKVRQKSEVDIVVSEDLNGTVKFSSSLPYPNNLNSVLAERLEKWLQLMLMWHPRQRGTDPTYGPNGCFKALDDILNLKLVHILNMVTGTIHTYPVTEDESLQSLKARIQQDTGIPEEDQELLQEAGLALIPDKPATQCISDGKLNEGHTLDMDLVFLFDNSKITYETQISPRPQPESVSCILQEPKRNLAFFQLRKVWGQVWHSIQTLKEDCNRLQQGQRAAMMNLLRNNSCLSKMKNSMASMSQQLKAKLDFFKTSIQIDLEKYSEQTEFGITSDKLLLAWREMEQAVELCGRENEVKLLVERMMALQTDIVDLQRSPMGRKQGGTLDDLEEQARELYRRLREKPRDQRTEGDSQEMVRLLLQAIQSFEKKVRVIYTQLSKTVVCKQKALELLPKVEEVVSLMNEDEKTVVRLQEKRQKELWNLLKIACSKVRGPVSGSPDSMNASRLSQPGQLMSQPSTASNSLPEPAKKSEELVAEAHNLCTLLENAIQDTVREQDQSFTALDWSWLQTEEEEHSCLEQAS
notes: IKKβ, IKK subunit β of the NF-kappaB pathway; FRET acceptor; also called IKK subunit β; source: HeLa cells (clone ACC 57), transfected, in living cells
Take B1: the “stoichiometry N” value in the test with YFP-tagged IKKα is ~1 acceptor (IKKβ) per donor (IKKα).
